Substitutions are numbered along the chain they refer to. In names and notes the source's numbering stands. Values belong to the binder of their own block, whether it stands above or below them.
What was measured:
cynomolgus TLR3 = cynomolgus TLR3 (cynomolgus, UniProt A0A2K5WT39 32-912); test: cell-based or functional assay
[1] = target: T1, human TLR3 extracellular domain (ECD) (human, UniProt O15455 24-703); test: ELISA, human TLR3 ECD coated, goat anti-human Fc:HRP, luminescence
T1 construct: amino acids 1-703 of human TLR3; the structural model covers residues 30-687; also called huTLR3 ECD; TLR3 ECD

murine TLR3, full length = murine TLR3, full length (mouse, UniProt Q99MB1 26-905); test: cell-based or functional assay

B1: mAb 15EVQ (antibody, human IgG4 S228P, kappa, F234A L235A)
heavy: not shown
light: DIQMTQSPSSLSASVGDRVTITCRASQSIGLYLAWYQQKPGKAPKLLIYAASSLQSGVPSRFSGSGSGTDFTLTISSLQPEDFATYYCQQGNTLSYTFGQGTKVEIKRTVAAPSVFIFPPSDEQLKSGTASVVCLLNNFYPREAKVQWKVDNALQSGNSQESVTEQDSKDSTYSLSSTLTLSKADYEKHKVYACEVTHQGLSSPVTKSFNRGEC
IC50, cyno ISRE reporter gene assay (cynomolgus TLR3): 1.74 µg/mL
IC50, cyno NF-κB reporter gene assay (cynomolgus TLR3): 4.18 µg/mL

B2: mAb 15-5 (antibody, human IgG4 S228P, kappa, F234A L235A, V domains shown)
VH: EVQLVQSGAEVKKPGESLKISCKGSGYSFTNYWISWVRQMPGKGLEWMGRIDPSDSYTNYSPSFQGHVTISADKSISTAYLQWSSLKASDTAMYYCARELYQGYMDTFDSWGQGTLVTVSS
VL: DIQMTQSPSSLSASVGDRVTITCRASQSIGLYLAWYQQKPGKAPKLLIYAASSLQSGVPSRFSGSGSGTDFTLTISSLQPEDFATYYCQQGNTLSYTFGQGTKVEIKR
notes: also called HC: F50R/V34I/G35S/A61S/Q67H
binding result [1]: binds

B4: mAb 15 (antibody, human IgG4 S228P, kappa)
heavy: not shown
light: B1 light
IC50, poly(I:C) ISRE luciferase reporter gene assay, HEK293T cells with full-length murine TLR3 (murine TLR3, full length): 22 µg/mL

B7: mAb c1811 (antibody, mouse IgG1, kappa, V domains shown)
VH: EVQLVASGGGLVKPGASLKLSCVASGFTFSDYWMAWVRQTPGKPMEYIGDIKSDGSKVNYAPSLKNRFTISRDNARTTLYLQMSNVRSEDTATYYCNRDIGPDWYFDFWGPGTMVTVSS
VL: DIQMTQSPTSLSASLGETVTIECRASEDIYNGLAWYQQKPGKSPQLLIYDSNSLHTGVPSRFSGRGSGTQYSLRINSLQSEDVASYFCQQYYDYPLTFGSGTKLEIKR
IC50, poly(I:C) ISRE luciferase reporter gene assay, HEK293T cells with full-length murine TLR3 (murine TLR3, full length): 0.7 µg/mL

The next lines start with the values.

binding result [1]: binds
B3: mAb 15-9 (antibody, human IgG4 S228P, kappa, F234A L235A, V domains shown)
VH: B2 VH with E99Q
VL: B2 VL
notes: also called HC: F50R/V34I/G35S/A61S/Q67H/E99Q

binding result [1]: binds
B5: mAb 15-6 (antibody, human IgG4 S228P, kappa, F234A L235A, V domains shown)
VH: B2 VH with R50F, S61A, H67Q, E99Q
VL: B2 VL
notes: also called HC: V34I/G35S/E99Q

IC50, poly(I:C) ISRE luciferase reporter gene assay, HEK293T cells with full-length murine TLR3 (murine TLR3, full length): 0.5 µg/mL
B6: mAb 5429 (antibody, mouse IgG1, kappa, V domains shown)
VH: B7 VH
VL: B7 VL

From patent EP3020822A1 (Janssen Biotech, Inc., dated 2016)
